The results in this text go back to patent US10738094B2, “Peptides and combination of peptides for use in immunotherapy against ovarian cancer and other cancers” (immatics biotechnologies GmbH, priority 2015, dated 2020).

The target in one experiment is HLA-A*02:01 (Homo sapiens, UniProt P04439, D140Y/D185E/D98H/E176V/E277Q/G131W/G231S/I119V/I121R/I166T/I218V/L300P/L318F/N151K/N90K/P208A/P217A/Q86G/Q94H/R138H/R169H/T345S). Description: MHC binding assay (UV-ligand exchange, beta2m ELISA). The conditions noted are these: binding to HLA-A*02:01 ranged by peptide exchange yield (UV-ligand exchange, β2m ELISA). Put shortly: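 Stabilised complexes were quantified via their β2m light chain: 100-fold-diluted monomers bound to streptavidin plates, then HRP anti-β2m at 2 ug/ml for 1 h at 37° C., TMB read at 450 nm. The value is the yield of UV-induced exchange of a photocleavable peptide for the candidate.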
On the technique in general: ELISA stands for enzyme-linked immunosorbent assay.

The next experiment has as its system CD8+ T cells. The experiment in a line: In vitro immunogenicity for MHC class I presented peptides (priming of CD8+ T cells with aAPCs, pMHC multimer staining). The class given is cell-based, human. The settings on record: for Wells positive [%]: HLA-A*02 restricted peptides, positive wells among evaluable. An excerpt: In order to obtain information regarding the immunogenicity of the TUMAPs of the present invention, the inventors performed investigations using an in vitro T-cell priming assay based on repeated stimulations of CD8+ T cells with artificial antigen presenting cells (aAPCs) loaded with peptide/MHC complexes and anti-CD28 antibody.
In order to perform in vitro stimulations by artificial antigen presenting cells loaded with peptide-MHC complex (pMHC) and anti-CD28 antibody, the inventors first isolated CD8+ T cells from fresh HLA-A*02 leukapheresis products via positive selection using CD8 microbeads (Miltenyi Biotec, Bergisch-Gladbach, Germany) of healthy donors obtained from the University clinics Mannheim, Germany, after informed consent.
PBMCs and isolated CD8+ lymphocytes were incubated in T-cell medium (TCM) until use consisting of RPMI-Glutamax (Invitrogen, Karlsruhe, Germany) supplemented with 10% heat inactivated human AB serum (PAN-Biotech, Aidenbach, Germany), 100 U/ml Penicillin/100 μg/ml Streptomycin (Cambrex, Cologne, Germany), 1 mM sodium pyruvate (CC Pro, Oberdorla, Germany), 20 μg/ml Gentamycin (Cambrex). 2.5 ng/ml IL-7 (PromoCell, Heidelberg, Germany) and 10 U/ml IL-2 (Novartis Pharma, Nürnberg, Germany) were also added to the TCM at this step.
Generation of pMHC/anti-CD28 coated beads, T-cell stimulations and readout was performed in a highly defined in vitro system using four different pMHC molecules per stimulation condition and 8 different pMHC molecules per readout condition.
The purified co-stimulatory mouse IgG2a anti human CD28 Ab 9.3 (Jung et al., 1987) was chemically biotinylated using Sulfo-N-hydroxysuccinimidobiotin as recommended by the manufacturer (Perbio, Bonn, Germany). Beads used were 5.6 μm diameter streptavidin coated polystyrene particles (Bangs Laboratories, Illinois, USA).
pMHC used for positive and negative control stimulations were A*0201/MLA-001 (peptide […] (SEQ ID NO. 664) from modified Melan-A/MART-1) and A*0201/DDX5-001 ([…] from DDX5, SEQ ID NO. 665), respectively.
800,000 beads/200 μl were coated in 96-well plates in the presence of 4×12.5 ng different biotin-pMHC, washed and 600 ng biotin anti-CD28 were added subsequently in a volume of 200 μl. Stimulations were initiated in 96-well plates by co-incubating […] CD8+ T cells with 2×10^5 washed coated beads in 200 μl TCM supplemented with 5 ng/ml IL-12 (PromoCell) for 3 days at 37° C. Half of the medium was then exchanged by fresh TCM supplemented with 80 U/ml IL-2 and incubating was continued for 4 days at 37° C. This stimulation cycle was performed for a total of three times. For the pMHC multimer readout using 8 different pMHC molecules per condition, a two-dimensional combinatorial coding approach was used as previously described (Andersen et al., 2012) with minor modifications encompassing coupling to 5 different fluorochromes. Finally, multimeric analyses were performed by staining the cells with Live/dead near IR dye (Invitrogen, Karlsruhe, Germany), CD8-FITC antibody clone SK1 (BD, Heidelberg, Germany) and fluorescent pMHC multimers. For analysis, a BD LSRII SORP cytometer equipped with appropriate lasers and filters was used. Peptide specific cells were calculated as percentage of total CD8+ cells. Evaluation of multimeric analysis was done using the FlowJo software (Tree Star, Oreg., USA). In vitro priming of specific multimer+ CD8+ lymphocytes was detected by comparing to negative control stimulations.
Exemplary flow cytometry results after TUMAP-specific multimer staining for two peptides of the invention are shown in FIG. 3 together with corresponding negative controls.

For the substance “79 (SLFIGEKAVLL; listed as Homo sapiens) [compound 79]”, the Peptide exchange entry in the experiment with HLA-A*02:01 is reported as ““+++” (≥50 = +++)”. Further, the “Wells positive [%]” value in the experiment on CD8+ T cells is ““+” (<20% = +)”. The matching figures for “60 (SLTIDGIYYV; listed as Homo sapiens) [compound 60]”: ““++++” (≥75% = ++++)” and ““++++” (>=70% = ++++)”. The matching figures for “460 (AMLEKNYKL; listed as Homo sapiens) [compound 460]”: ““++++” (≥75% = ++++)” and ““+” (<20% = +)”. The matching figures for “141 (YLDFSNNRL; listed as Homo sapiens) [compound 141]”: ““++” (≥20% = ++)” and ““+” (<20% = +)”. Take “150 (RLWEEGEELEL; listed as Homo sapiens) [compound 150]”: the Peptide exchange result in the experiment with HLA-A*02:01 is ““+++” (≥50 = +++)”. Moreover, the “Wells positive [%]” value with CD8+ T cells is ““+” (<20% = +)”.

For the substance “384 (ILFANPNIFV; listed as Homo sapiens) [compound 384]”, in the experiment with HLA-A*02:01, the Peptide exchange entry is recorded as ““+++” (≥50 = +++)”. Moreover, the “Wells positive [%]” value with CD8+ T cells is ““+” (<20% = +)”. “443 (GLWEIENNPTV; listed as Homo sapiens) [compound 443]”: the Peptide exchange result with HLA-A*02:01 is listed as ““+++” (≥50 = +++)”. Moreover, in the experiment on CD8+ T cells, the “Wells positive [%]” value is on record as ““+” (<20% = +)”. The matching figures for “48 (ALAELYEDEV; listed as Homo sapiens) [compound 48]”: ““+++” (≥50 = +++)” and ““+” (<20% = +)”. Regarding “603 (FLIEPEHVNTV; listed as Homo sapiens) [compound 603]”, in the experiment with HLA-A*02:01, the Peptide exchange entry was ““++” (≥20% = ++)”. The “Wells positive [%]” value with CD8+ T cells is ““+” (<20% = +)”.

Turning to “118 (KLIDNNINV; listed as Homo sapiens) [compound 118]”, the Peptide exchange entry with HLA-A*02:01 is ““+++” (≥50 = +++)”. For the same substance, the “Wells positive [%]” value with CD8+ T cells is on record as ““+” (<20% = +)”. The matching figures for “56 (KLYEGIPVLL; listed as Homo sapiens) [compound 56]”: ““++++” (≥75% = ++++)” and ““+” (<20% = +)”. The matching figures for “319 (SLEPQIQPV; listed as Homo sapiens) [compound 319]”: ““++” (≥20% = ++)” and ““+” (<20% = +)”. The matching figures for “2 (SLLEADPFL; listed as Homo sapiens) [compound 2]”: ““+++” (≥50 = +++)” and ““+” (<20% = +)”. Regarding “38 (FLLEDDIHVS; listed as Homo sapiens) [compound 38]”, in the experiment with HLA-A*02:01, the Peptide exchange entry is reported as ““+++” (≥50 = +++)”. The “Wells positive [%]” value with CD8+ T cells was ““+” (<20% = +)”. The matching figures for “36 (YVLEDLEVTV; listed as Homo sapiens) [compound 36]”: ““++” (≥20% = ++)” and ““+” (<20% = +)”.

For “143 (LLLDITPEI; listed as Homo sapiens) [compound 143]”, the Peptide exchange entry with HLA-A*02:01 is ““++++” (≥75% = ++++)”. Further, the “Wells positive [%]” value in the experiment with CD8+ T cells is listed as ““+” (<20% = +)”. The matching figures for “3 (SLASKLTTL; listed as Homo sapiens) [compound 3]”: ““++++” (≥75% = ++++)” and ““+” (<20% = +)”. Turning to “247 (VLLPNDLLEKV; listed as Homo sapiens) [compound 247]”, the Peptide exchange entry with HLA-A*02:01 is reported as ““+++” (≥50 = +++)”. In the experiment on CD8+ T cells, the “Wells positive [%]” value was ““+” (<20% = +)”. The matching figures for “499 (KIFDIDEAEEGV; listed as Homo sapiens) [compound 499]”: ““++” (≥20% = ++)” and ““+” (<20% = +)”. Consider “511 (FLDPYCSASV; listed as Homo sapiens) [compound 511]”, for which the Peptide exchange entry with HLA-A*02:01 is ““++” (≥20% = ++)”. Besides, the “Wells positive [%]” value in the experiment on CD8+ T cells is ““+” (<20% = +)”. The matching figures for “489 (KMWEELPEVV; listed as Homo sapiens) [compound 489]”: ““+++” (≥50 = +++)” and ““+” (<20% = +)”. The matching figures for “8 (FTLGNVVGMYL; listed as Homo sapiens) [compound 8]”: ““++++” (≥75% = ++++)” and ““+” (<20% = +)”. The matching figures for “199 (ALQDVPLSSV; listed as Homo sapiens) [compound 199]”: ““+++” (≥50 = +++)” and ““+” (<20% = +)”.

For the substance “652 (TLWYRAPEV; listed as Homo sapiens) [compound 652]”, the “in vitro immunogenicity: donors” value in the experiment with CD8+ T cells (percentage of positive donors) is “++++ (>=70% = ++++)”.

“527 (FLLEPGNLEV; listed as Homo sapiens) [compound 527]”: the Peptide exchange entry in the experiment with HLA-A*02:01 is listed as ““++++” (≥75% = ++++)”. Turning to “237 (ALLEASGTLLL; listed as Homo sapiens) [compound 237]”, the Peptide exchange entry with HLA-A*02:01 is given as ““++++” (≥75% = ++++)”. On the same count and under the same terms, for “563 (WLLPYNGVTV; listed as Homo sapiens) [compound 563]” the value was ““+++” (≥50 = +++)”; for “271 (LVYPLELYPA; listed as Homo sapiens) [compound 271]”, ““+++” (≥50 = +++)”; for “20 (RMIEYFIDV; listed as Homo sapiens) [compound 20]”, ““+++” (≥50 = +++)”.

With “436 (HLAEVSAEV; listed as Homo sapiens) [compound 436]”, the Peptide exchange entry with HLA-A*02:01 was ““+++” (≥50 = +++)”. As for “313 (VLFDDELLMV; listed as Homo sapiens) [compound 313]”, the Peptide exchange entry with HLA-A*02:01 is ““+++” (≥50 = +++)”. Still for that read-out and setting: with “68 (SLMELPRGLFL; listed as Homo sapiens) [compound 68]” the entry was ““++++” (≥75% = ++++)”; with “226 (MLYVVPIYL; listed as Homo sapiens) [compound 226]”, ““++” (≥20% = ++)”. As to “99 (ALVSKGLATV; listed as Homo sapiens) [compound 99]”, in the experiment with HLA-A*02:01, the Peptide exchange entry is ““++” (≥20% = ++)”. Take “337 (HLLSELEAAPYL; listed as Homo sapiens) [compound 337]”: the Peptide exchange result with HLA-A*02:01 is listed as ““++++” (≥75% = ++++)”. The same measure, in the same setting: for “504 (GLSDGNPSL; listed as Homo sapiens) [compound 504]” the value was ““++” (≥20% = ++)”; for “301 (FLVEDLVDSL; listed as Homo sapiens) [compound 301]”, ““+++” (≥50 = +++)”.

As to “514 (ILVDWLVQV; listed as Homo sapiens) [compound 514]”, the Peptide exchange result with HLA-A*02:01 is given as ““+++” (≥50 = +++)”. Same read-out and setting: for “14 (AAYGGLNEKSFV; listed as Homo sapiens) [compound 14]” the value was ““+++” (≥50 = +++)”. For the substance “312 (IISDLTIAL; listed as Homo sapiens) [compound 312]”, the Peptide exchange entry with HLA-A*02:01 is reported as ““+++” (≥50 = +++)”. Still for that read-out and setting: for “92 (YLIPFTGIVGL; listed as Homo sapiens) [compound 92]” the value was ““++” (≥20% = ++)”; for “23 (VLLDDIFAQL; listed as Homo sapiens) [compound 23]”, ““+++” (≥50 = +++)”; for “522 (TLWYRSPEV; listed as Homo sapiens) [compound 522]”, ““++” (≥20% = ++)”.
